Data as given in the DeepSol protein solubility set.

Assay: soluble on expression in E. coli; label from the status in PepcDB or PDB records

Sequence	soluble on expression in E. coli
MSLILTLDPQVAGASGDMVLGALIAVGADPNRLEEVVHEVSSLGHEVDVHVHEIQKRGIRAVRVEVDAEGDLRDPDELREAVKTVAENVLEDRWRELPELALKYLLRAEERVHGDLCHLHELGSSDTVVDLVGTAALLEDLNPKASEVLPPNVGSGTVETEHGRLPVPAPAVVEVLSEWDVGIVREGEGELLTPTGAALLRTIDELLPDPPPPYRVKRQGFGAGTKDLPDRPNVLRALICEPGGSGEHVRIVETSVDDVDGEAVGELIEAVLQLEGVHDVEVLHGFGKKGRPRFVIRVVTEDRPGIEREVFRELFRWTGTLGARVYRCTRVTADRRIVDVDGIRVKVSRFEDVHHAKPEWEDVRRKVDRESAPLTRARLVGDLRKRYEGDGEDGAGDEGHHHHHH	soluble
MGEVFKMDGLASTILEVHKPAKLEDIPDEDPIAIILALKWLEYLCERAGVENVSDILDFYYMLGWLGDKALAKLLKFLKGIKVDEENVVEGSGKLNITDHIISLLFIERLNGKKISAELLDKIEWELRKIKKGAEQFYGI	not soluble
MSLNVVGYVRLSRDEDKENYSSIITQKNIIEEYSKNKNWTVNRIYVDDNCSGYTFERPEFLKMMYEIKERKIDVIVAKDLSRIGRNNGKVLVFIDKLKEKGIRLILVEEATGGLDLLEDNYDILGIKTWYNEMYVKDISRKIRASMHLKQKKGKEGHHHHHH	soluble
MNSEIELPVQKQLEAYNARDIDAFMAWWADDCQYYAFPATLLAGNAAEIRVRHIERFKEPDLYGELLTRVIVGNVVIDHETVTRNFPEGKGEVDVACIYEVENGRIAKAWFKIGEPRIVSQKS	soluble
ATVKFKYKGEEKEVDISKIKKVWRVGKMISFTYDEGGGKTGRGAVSEKDAPKELLQMLEKQKK	soluble
GQHSLQYFHTAVSRPGLGEPWFISVGYVDDTQFVRFDSDAENPRMEPRARWMEQEGPEYWERETQIAKGHEQSFRGSLRTAQSYYNQSKGGSHTLQWMYGCDMGSDGRLLRGYLQFAYEGRDYIALNEDLKTWTAVDMAAQITRRKWEQAGIAEKDQAYLEGTCMQSLRRYLELGKETLLRTDPPKAHVTHHPRSYGAVTLRCWALGFYPADITLTWQLNGEELTQDMELVETRPAGDGTFQKWASVVVPLGKEQNYTCHVNHEGLPEPLTLRW	soluble
TPARDWNYTAPDGTVVEGWYYLPPQFDPSKKYPMLVYYYGGTSPINRTLEGHYSLAMYAAQGYVVYTLNPSGTTGYGQEYAARHVNAWGDRTADEIIGATKEFIRTHSFVNGKKVGCFGASYGGFMTQYLQTKTDIFAAAVSHAGISSISNYWGSGYWGMGYSTVASTDSYPWNNPDLYAGHSPLFRADKIHTPLLLLHGSVDTNVPTAESVNLYNALKILGREVEFIEFTEQDHFILEPERRIRWTNSICAWFARWL	not soluble
MAHHHHHHMDSTYKEPSSAAVPTSYAVLSLPSKATMRRKGYNPDEVNYNGGLATHPLATWKTFSLPDGCTYKDAVSAVQTANAKPWGPIKIRLNFSDGRYEQFERVAPSVMDSLQSTTTYSPNDAFKAETLSLSTMRRAQQQPRLRPLVDERGHHLSNKPIPRTFAPEELYKNCPPPVLSQPGYDFTPISYNTFLLNPQDPPHGVRNVQSNFMHSSCDYRPRSYLRPEQATGTSHASRHCHCNEVFQVGDHTMDFACEGTTVDHRNRLVKKDYSPVGTLKANSSIVGRRHARKPRFGCTGVADSQTVAAAVAPAADEETA	soluble
MADSLDRLYQAVLAARDLDPATSRTARLFQRGSGKMAKKLAEEAIEVVIDAVNGNREAVIRESADLLYNLTVLWASAGVRPEDVWAEMRRRENLLGIAEKLPKSRIGKPAAPHATRRPVIPQEARAVRKHR	not soluble
MSLNPKAKFAVIDDLETSRLHISHILQEDGFTVDLFDSATQFLLMKDEILDYAGLIIDIHMPGYNGYELAETIHAMFGTSAPPFIFISASPESIRHDRFNTEHMWQGFAKPMDKNRFIDSIRVLSDKSSLKTEAFEPASVLLVEDEPINAEVVKTMLERNGHTVEVATTGAAALHLATTVPFNLILMDINLPDMSGIETTRCIKAQGVDTEIVALTGNAYEEDKLKTKEAGMSYHLVKPVMYHELNNVIKLALRVAHEGHHHHHH	soluble
MKFLTTNFLKCSVKACDTSNDNFPLQYDGSKCQLVQDESIEFNPEFLLNIVDRVDWPAVLTVAAELGNNALPPTKPSFPSSIQELTDDDMAILNDLHTLLLQTSIAEGEMKCRNCGHIYYIKNGIPNLLLPPHLV	not soluble
MGSDKIHHHHHHMSCIIPNIYSQPTDTNLWNILLSSGIPRHYQKGEFVFEKDQPSNGLICLKKGKVKVSSFFSEGSEKIFGILVAPALFGETETLDQGPRMVSATALTHVEIVAISGNKTKELIYTYPDIALSIIQSIGVKLRWTTLQAEDLSTQKIEYRLARLLLDFKHYGIFTSKNNDNCLMITHEELAHFIGTARSKVTTYLNEFAHKGLIRLRRGEIRILDTAGLNKYKYTHKSQA	not soluble
MSLKLITNYQFLTYDGNYFHAEVIQSVLAECERAGIEIDTVLLDRDHQNDMEKFWDQIRSGAAEGVILVGVDMPPMLEVVRALGVPVVMVNGNDPNCQFDSVMPAFRDGSRIATRYLIEQGHRDIVHVTHLYRPLIRRRLDGFREALEEAGLPFSFERNVIDISSGHFSAEQAASVVAERIANGTLNATALFCVSDYTAFGVVQGILRSGKTVPGDYSVASFDDLPLAQLCRPALTSVGVDRRALGRIAVERLLSRLESVEGPTLRIEVGARLTIRDSTRPEGHHHHHH	soluble
MEFLLLDDRENLKLAIIRKLEQQYSFSERKDRLCKQLAISPYLLERNITEINADLQRFGLINEMEISEKNNEILLSQSLRISSSIIEEYYLKDSLEFNLLKTIFFHQFTSIKKYGEKHGMSRTVVYKIVDHIRKELGQYGIKLSKNLQLSGNEMAIRQYFTMLYYRIYKDSEELYNQTDLRAVNQLLAQLKGSYENITNFHLFKHYVLVALERTQRKANYFLSQEENPFAFDEESSIYQEIQSWINEVMKATHAEKNAEIQGIIGNLSVYQSELISEHLLSSHNEAITATKTLFFSYMPFTISDEEFYQEIVPIIYQHRFITPFIDITLRIMDLEFFQERYPIVFNSCRQFLFALDCSAFEFSKLSLFFDLLLVLSRLYDQRNEKSTINLYVNFTQGEKYTQFIKEQIKIFESFSIHFHSAIRPDTDLVVSDYLPKTLFSVKCLIWLAPPRASDWQNFGNEIVRINKELQQTKQRKSE	not soluble
MDIRPARISDLTGMQNCNLHNLPENYQLKYYLYHAISWPMLSYVATDPKGRVVGYVLAKMEEEPKDGIPHGHITSVSVMRSYRHLGLAKRLMVQSQRAMVEVYGAKYMSLHVRKSNRAAIHLYRDTLQFDVQGIESKYYADGEDAYAMHKDFSTLKFDTPETNDELAKTVQSLALNN	soluble
MRLKKLYLKGFKSFGRPSLIGFSDRVTAIVGPNGSGKSNIIDAIKWVFGEQSKKELRASEKFDMIFAGSENLPPAGSAYVELVFEENGEEITVARELKRTGENTYYLNGSPVRLKDIRDRFAGTGLGVDFYSIVGQGQIDRIVNASPEELRLESSKHPTSLVPRGSYQRVNESFNRFISLLFFGGEGRLNIVSEAKSILDAGFEISIRKPGRRDQKLSLLSGGEKALVGLALLFALMEIKPSPFYVLDEVDSPLDDYNAERFKRLLKENSKHTQFIVITHNKIVMEAADLLHGVTMVNGVSAIVPVEVEKILEVGSHHHHHH	soluble
MDPFGTYKTAISARATDKAILKKSQDGGIISASYIYGLENGLLDGVIVANTEDGFKAAPKIATTPEEVLSAAGTKYTVSPNVSVLKDAVREYALEKVGIVGTPCQVRAIRKLMKYPMGFRHTDSKIALVMGIFCMENFPYEGMKAIVEQYAGIRMNDVLKTDIGKGKFWVYSKSGDVKAVPLKDTHMYEQKSCHVCMDYTAELADISTGSVGSPDGWSTIFVRTAKGEEYLNKMVEAGALETKPIDDVKPGLDLVQKLALQKKEKNDKEIAHRKEIGLPVPYLEHHHHHH	not soluble
MRKSLTDIYEARVDAEELRADPAQHAVLEDLEGIRQWLEAHPERKRGLFGLFAAKEEPPKGLYLWGGVGRGKSMIMDLFTEAVEIPMKRRVHFHAFMQEVQQGMHEARKKGVEDALQPVADSVAGQVRLLAFDEMQITDITDAMVVGRLFQKLFEQGVVIVTTSNRPPEGLYENGLNREVFLPFIDLLRERMTVIELESPTDYRQHRLQGAQVFFHPARKAEQAIARIWSDLTGGDRGHPMRLPVNGRTVEIPRFANGVGRATFWGLCARPLGPADFLAIAEACRVLILEDIPRLSAENYNEAKRFVTLIDALYEARVRLIASAADEPERLYIEGEGSFEFERTASRLREMQSADWANLEHHHHHH	not soluble
MLFKTIFYQKLQKKVTTLFNLETERVIREIENLNKNNPKVIFQAPEGLKLKVEKEIEKIKQYFKQKNINIEIYLWGNTCFGACDLIDNHVKNLNVDLIIHYGHEKLSYANPEIKTLFIPAYHIFNKDEEEKILNDIKNFIEKHKSGGKKVAIATTIQYKKLLKDFNPSIILGCRGEVKEGDVILFVGTGRFHPLMIAYKYQKEVFIYNPLSKCFDKISEEEINKFIKKRILAISKLLLNKPKKVGVVLSTKKGQCRKRVFDEIIKLLEENDVNYLPILVDNISPDILFYDVDCYIIVACPRIVLDDYILYKKPIYTPEEFKLFLKNSFKYKFDEIKEDDFLEHHHHHH	soluble
MEAKLQVGVLGFGTVGSGVIHILEEHQEKISQVTGYHISVKKVLVRDLEKNRRYETKGFELTTNPSDVLDDPEIAVVVEVMGSITTAREYILQALKAGKHVVTANKDLIALHGDELVAVAQANNCDLFYEASVAGGIPILRTIVNSLAADKIQKVMGIVNGTTNFMLTKMTTEKK	not soluble
MYTIAALYHFTRFADPADLKPALLDLCLAQGVKGTLLLAKEGINGTIAGPRAGIDAVLAHIRALPGCSDLEWKEATSDHPPFGKMKVRLKQEIVTMGQPDVDPRARVGHYVEPEDWNDLIRSDDVVLIDTRNDYEVAIGTFEGAIDPMTESFRDFPAWWEANKERFHNKRVAMFCTGGIRCEKSTNYLLGQGVEDVYHLKGGILRYLEEVPAENSTWQGECFVFDNRVSVGHGLVEGPHELCHGCRRPILPEDRNRPEYEHGVSCHLCIDETSEADKMRFRERQKQIALARARGEDHLATH	not soluble
MNQIAIQETIQRLINQQVVPGVAWGTITEDSLSEQYTGFLGNTGPFARQKISSASLYDLASLTKVIGTTNRMLQLIDTNQLTFSTTVGEILPDYQGLSCSIGELLLHQSGLPADVVDKKNVTKKSLQEIILTHSLSERGKTTYSDLGYYLLGEIIQVLDRCSLEESFQTYVFQPMNLQHTSFTVSDFAQAVPTEITKQRGVIQGVVHDSKAYQLKAPIGSAGLFATLPDLLTFVQCFMNNRYPSGKPLFSEKMFTALWSMNQGGRTFGWEVKKTQAGADYLYHTGFTGTAIGMKKETKEALILLTNRIHPTREERGFLKARTKIYQQYF	not soluble
MGSDKIHHHHHHMVSLFKIIQVGDHGEVPGAEVFWMKDFDKWYRLSFYSFLIKTENDQYVLINTGLPDDLSLRNKFLKEWAKSDRCKFQHVEKIENALAKLNITTDDISHIIITPVQDYTIGRIHMFRKAKLYFSKKGWYEDVVTPSPSPFLNRDIYLPRLTREYLFDEAWNRIVLVENQEVIKGIEVKWTGCHHRSSMLVKFNFDKKRWCISDSAFVMNNFEQNIPIGIAEDIYECLNAYDYMRRECDVVIPSYDPENVNRFKEYILK	not soluble
